Laboratory results as given in patent publication US20190142971A1, “FORMULATION AND DELIVERY OF MODIFIED NUCLEOSIDE, NUCLEOTIDE, AND NUCLEIC ACID COMPOSITIONS” (ModernaTX, Inc., priority 2013, published 2019).
Like-named read-outs stand apart in the source and are kept apart here.

Columns and labels:
HEK 293A cells = experiment: Example 64B: Factor IX mRNA half-life by quantitative Real-Time PCR; type: cell-based, Human; settings: HEK293
Description: The transfection complexes were removed 3 hours after transfection. […] Total RNA was isolated and used for cDNA synthesis.

mice [1] = experiment: Example 39: Factor IX mmRNA IM in mice, serum Factor IX at 13 hours; type: in vivo; settings: 2×100 ug/mouse IM
Description: Human Factor IX mmRNA (Gen1; fully modified 5-methycytosine and pseudouridine) formulated in formulation buffer was delivered to mice via intramuscular injection.
The mice were bled at 13 hours after the intramuscular injection to determine the concentration of human the polypeptide in serum in pg/mL.

mice [2] = settings: for Serum Concentration 8-12 hours after administration: Factor IX; for Factor IX Protein Expression, Conc: LNP IV, mice, 8 hrs
HEK293A = experiment: Example 44: signal sequence exchange, secreted G-CSF ELISA (Table 70); type: cell-based; settings: 293A, 250 ng mRNA, Lipofectamine 2000, supernatant 24 hrs
Excerpt: (§1) These variants included the G-CSF constructs encoding either the wild-type N terminal secretory signal peptide sequence ([…]; SEQ ID NO: 19), no secretory signal peptide sequence, or secretory signal peptide sequences taken from other mRNAs. These included sequences where the wild type GCSF signal peptide sequence was replaced with the signal peptide sequence of either: human α-1-anti trypsin (AAT) ([…]; SEQ ID NO: 20), human Factor IX (FIX) ([…]; SEQ ID NO: 21), human Prolactin (Prolac) ([…]; SEQ ID NO: 22), or human Albumin (Alb) ([…]; SEQ ID NO: 23).
(§2) 250 ng of modified mRNA encoding each G-CSF variant was transfected into HEK293A (293A in the table), mouse myoblast (MM in the table) (C2C12, CRL-1772, ATCC) and rat myoblast (RM in the table) (L6 line, CRL-1458, ATCC) cell lines in a 24 well plate using 1 ul of Lipofectamine 2000 (Life Technologies), each well containing 300,000 cells. […] The data shown in Table 70 reveal that cells transfected with G-CSF mmRNA encoding the Albumin signal peptide secrete at least 12 fold more G-CSF protein than its wild type counterpart.

mouse myoblast (C2C12) = experiment: as above; type: cell-based; settings: MM (mouse myoblast C2C12), 250 ng mRNA, supernatant 24 hrs
Excerpt: as §1, §2

rat myoblast (L6 line) = experiment: as above; type: cell-based; settings: RM (rat myoblast L6), 250 ng mRNA, supernatant 24 hrs
Excerpt: as §1, §2

[3] = Example 64A: Factor IX mRNA in serum-free media, peptides by MALDI; type: cell-based
Excerpt: The cell culture supernatant was collected and subjected to trypsin digestion before undergoing 2-dimensional HPLC separation of the peptides. Matrix-assisted laser desorption/ionization was used to detect the peptides. 8 peptides were detected and 7 of the detected peptides are unique to Factor IX.

rats = experiment: Example 67: intravitreal mCherry/luciferase mRNA in rats, F-microscopy (Table 100); type: in vivo; settings: saline, 18 hours
Excerpt: The sample was compared against a control of saline only delivered intravitreally.
The formulation will be administered to the left or right eye of each animal on day 1 while the animal is anesthetized. On the day prior to administration gentamicin ophthalmic ointment or solution was applied to both eyes twice. The gentamicin ophthalmic ointment or solution was also applied immediately following the injection and on the day following the injection. Prior to dosing, mydriatic drops (1% tropicamide and/or 2.5% phenylephrine) are applied to each eye.
18 hours post dosing the eyes receiving the dose of mCherry and delivery buffer are enucleated and each eye was separately placed in a tube containing 10 mL 4% paraformaldehyde at room temperature for overnight tissue fixation. The following day, eyes will be separately transferred to tubes containing 10 mL of 30% sucurose and stored at 21° C. until they were processed and sectioned. The slides prepared from different sections were evaluated under F-microscopy.

mice [4] = experiment: Example 29: mCherry LNP IV in mice, liver and spleen by IHC, western blot, FACS; type: in vivo; settings: LNP NPA-003-5, 100 ug IV, 24 hrs
Description: The mCherry formulation, listed in Table 54, was characterized by particle size, zeta potential, and encapsulation.
Mice were sacrificed at 24 hrs after dosing. The liver and spleen from the mice administered with mCherry modified mRNA formulations were analyzed by immunohistochemistry (IHC), western blot, or fluorescence-activated cell sorting (FACS).

BJ fibroblasts = settings: 250 ng transfected daily for 5 days
[5] = test system: peripheral blood mononuclear cells (PBMC); type: cell-based, human
Description: 500 ng of G-CSF mRNA modified with 5-methylcytosine (5mC) and pseudouridine (pseudoU) or unmodified G-CSF mRNA was transfected with 0.4 uL of Lipofectamine 2000 into peripheral blood mononuclear cells (PBMC) from three normal blood donors (D1, D2, and D3). […] The supernatant was harvested 6 hours and 18 hours after transfection and run by ELISA to determine the protein expression. The expression of G-CSF, IFN-alpha, and TNF-alpha for Donor 1 is shown in Table 88, Donor 2 is shown in Table 89 and Donor 3 is shown in Table 90.

HEK293 cells = experiment: Example 46B: percent modification, HEK293 G-CSF ELISA (Table 75); type: cell-based, Human; settings: HEK293, 250 ng mRNA with RNAiMAX, supernatant after 16 hours

Molecule: Factor IX: modified mRNA encoding human Factor IX, SEQ ID NO: 8, Cap1, fully modified with 5-methylcytosine and pseudouridine
- half-life of mRNA (HEK 293A cells): 8 to 10 h
- Factor IX in serum (mice [1]): 1600 pg/mL
- Factor IX protein expression determined by ELISA (mice [2]; 100 ug dose group): 3000 to 11000 ng/mL
- Serum Concentration 8-12 hours after administration (mice [2]; IM, 2 × 100 ug): ~1.6 ng/mL
- Serum Concentration 8-12 hours after administration (mice [2]; IV (LNP), 1 ug): ~40 ng/mL
- Serum Concentration 8-12 hours after administration (mice [2]; IV (LNP), 10 ug): ~400 ng/mL
- Serum Concentration 8-12 hours after administration (mice [2]; IV (LNP), 100 ug): ~3,000-10,000 ng/ml
- Factor IX Protein Expression, Conc (mice [2]; dose 10 ug): 383.04 ng/mL
- Factor IX Protein Expression, Conc (mice [2]; dose 100 ug, dilution factor 50x): 3247.75 ng/mL
- Factor IX Protein Expression, Conc (mice [2]; dose 100 ug, dilution factor 250x): 11177.20 ng/mL
- secreted G-CSF protein (HEK293A): 11675 pg/mL
- secreted G-CSF protein (mouse myoblast (C2C12)): 6175 pg/mL
- secreted G-CSF protein (rat myoblast (L6 line)): 11675 pg/mL
- Factor IX protein expression (peptides by MALDI) [3]: able to express full-length Factor IX protein

B1: mCherry: mCherry mRNA (SEQ ID NO: 5; SEQ ID NO: 12 in Example 29), Cap1, fully modified with 5-methylcytosine and pseudouridine (nucleic acid)
chain: GGGAAAUAAGAGAGAAAAGAAGAGUAAGAAGAAAUAUAAGAGCCACCAUGGUAUCCAAGGGGGAGGAGGACAACAUGGCGAUCAUCAAGGAGUUCAUGCGAUUCAAGGUGCACAUGGAAGGUUCGGUCAACGGACACGAAUUUGAAAUCGAAGGAGAGGGUGAAGGAAGGCCCUAUGAAGGGACACAGACCGCGAAACUCAAGGUCACGAAAGGGGGACCACUUCCUUUCGCCUGGGACAUUCUUUCGCCCCAGUUUAUGUACGGGUCCAAAGCAUAUGUGAAGCAUCCCGCCGAUAUUCCUGACUAUCUGAAACUCAGCUUUCCCGAGGGAUUCAAGUGGGAGCGGGUCAUGAACUUUGAGGACGGGGGUGUAGUCACCGUAACCCAAGACUCAAGCCUCCAAGACGGCGAGUUCAUCUACAAGGUCAAACUGCGGGGGACUAACUUUCCGUCGGAUGGGCCGGUGAUGCAGAAGAAAACGAUGGGAUGGGAAGCGUCAUCGGAGAGGAUGUACCCAGAAGAUGGUGCAUUGAAGGGGGAGAUCAAGCAGAGACUGAAGUUGAAAGAUGGGGGACAUUAUGAUGCCGAGGUGAAAACGACAUACAAAGCGAAAAAGCCGGUGCAGCUUCCCGGAGCGUAUAAUGUGAAUAUCAAGUUGGAUAUUACUUCACACAAUGAGGACUACACAAUUGUCGAACAGUACGAACGCGCUGAGGGUAGACACUCGACGGGAGGCAUGGACGAGUUGUACAAAUGAUAAGCUGCCUUCUGCGGGGCUUGCCUUCUGGCCAUGCCCUUCUUCUCUCCCUUGCACCUGUACCUCUUGGUCUUUGAAUAAAGCCUGAGUAGGAAG
modifications: Cap1; 5-methylcytosine and pseudouridine
- mCherry expression in eye sections (rats): Positive expression was seen
- mCherry expression in liver (histology) (mice [4]): uniform mCherry expression throughout the section
- mCherry expression in spleen leukocyte populations (FACS) (mice [4]): negative for mCherry expression
- IFN-beta (BJ fibroblasts; 6 hours): 0 pg/mL
- IL-6 (BJ fibroblasts; 6 hours): 3278 pg/mL
- IFN-beta (BJ fibroblasts; Day 1): 238 pg/mL
- IL-6 (BJ fibroblasts; Day 1): 3893 pg/mL
- IFN-beta (BJ fibroblasts; Day 2): 113 pg/mL
- IL-6 (BJ fibroblasts; Day 2): 1833 pg/mL
- IFN-beta (BJ fibroblasts; Day 3): 413 pg/mL
- IL-6 (BJ fibroblasts; Day 3): 25539 pg/mL
- IFN-beta (BJ fibroblasts; Day 4): 413 pg/mL
- IL-6 (BJ fibroblasts; Day 4): 29233 pg/mL
- IFN-beta (BJ fibroblasts; Day 5): 213 pg/mL
- IL-6 (BJ fibroblasts; Day 5): 20178 pg/mL
- G-CSF ([5]; PBMC Donor 1, 500 ng mRNA, 6 hours): 0 pg/mL
- G-CSF ([5]; PBMC Donor 1, 500 ng mRNA, 18 hours): 0 pg/mL
- G-CSF ([5]; PBMC Donor 2, 500 ng mRNA, 6 hours): 0 pg/mL
- G-CSF ([5]; PBMC Donor 2, 500 ng mRNA, 18 hours): 7 pg/mL
- G-CSF ([5]; PBMC Donor 3, 500 ng mRNA, 6 hours): 0 pg/mL
- G-CSF ([5]; PBMC Donor 3, 500 ng mRNA, 18 hours): 0 pg/mL
- G-CSF Expression (HEK293 cells): 0 ng/mL
